Test results: IntAct's records for PubMed 22072710

B1: Protein Vpu (Human immunodeficiency virus type 1 group M subtype B (isolate BH10) (HIV-1)), P69699 (parent)
chain: MQPIQIAIVALVVAIIIAIVVWSIVIIEYRKILRQRKIDRLIDRLIERAEDSGNESEGEISALVEMGVEMGHHAPWDVDDL
B2: Bone marrow stromal antigen 2 (Homo sapiens), Q10589 (parent)
chain: MASTSYDYCRVPMEDGDKRCKLLLGIGILVLLIIVILGVPLIIFTIKANSEACRDGLRAVMECRNVTHLLQQELTEAQKGFQDVEAQAATCNHTVMALMASLDAEKAQGQKKVEELEGEITTLNHKLQDASAEVERLRRENQVLSVRIADKKYYPSSQDSSSAAAPQLLIVLLGLSALLQ
partner: B1 chain

Variants of: B1
Details: with bst2_human BST2, Q10589

Variant	effect of a mutation on the interaction
A14F	decreasing interaction
A10F;A14F;A18F	decreasing interaction
W22A	decreasing interaction

Variants of: B1
Details: with bst2_human BST2, Q10589
Remark: another data set of the same source

Variant	effect of a mutation on the interaction
A10F;A14F;A18F	disrupting interaction

Variants of: B2
Details: with vpu_hv1b1 vpu, P69699

Variant	effect of a mutation on the interaction
MASTSYDYCRVPMEDGDKRCKLLLGAGILVLLIIVILGVPLIIFTIKANSEACRDGLRAVMECRNVTHLLQQELTEAQKGFQDVEAQAATCNHTVMALMASLDAEKAQGQKKVEELEGEITTLNHKLQDASAEVERLRRENQVLSVRIADKKYYPSSQDSSSAAAPQLLIVLLGLSALLQ	decreasing interaction
MASTSYDYCRVPMEDGDKRCKLLLGIGILVLLIIVILGVPAIIFTIKANSEACRDGLRAVMECRNVTHLLQQELTEAQKGFQDVEAQAATCNHTVMALMASLDAEKAQGQKKVEELEGEITTLNHKLQDASAEVERLRRENQVLSVRIADKKYYPSSQDSSSAAAPQLLIVLLGLSALLQ	disrupting interaction
MASTSYDYCRVPMEDGDKRCKLLLGIGILVLLIIVIAGVPLIIFTIKANSEACRDGLRAVMECRNVTHLLQQELTEAQKGFQDVEAQAATCNHTVMALMASLDAEKAQGQKKVEELEGEITTLNHKLQDASAEVERLRRENQVLSVRIADKKYYPSSQDSSSAAAPQLLIVLLGLSALLQ	disrupting interaction
MASTSYDYCRVPMEDGDKRCKLLIGIGILVLLIIVILGVPLIIFIIKANSEACRDGLRAVMECRNVTHLLQQELTEAQKGFQDVEAQAATCNHTVMALMASLDAEKAQGQKKVEELEGEITTLNHKLQDASAEVERLRRENQVLSVRIADKKYYPSSQDSSSAAAPQLLIVLLGLSALLQ	disrupting interaction strength
MASTSYDYCRVPMEDGDKRCKLLLGIGILVLLIAVILGVPLIIFTIKANSEACRDGLRAVMECRNVTHLLQQELTEAQKGFQDVEAQAATCNHTVMALMASLDAEKAQGQKKVEELEGEITTLNHKLQDASAEVERLRRENQVLSVRIADKKYYPSSQDSSSAAAPQLLIVLLGLSALLQ	disrupting interaction
